{
  "source": "patent US20200385425A1",
  "binders": {"B1": {"name": "chimeric peptide YE-NA-1 (peptide)", "peptide": "YGRKKRRQRRRYEKLSSIESDV", "modifications": "not checked"}},
  "target": "PDZ1/2 domain (Homo sapiens (Human)), P78352",
  "sequence (P78352 65-246 limits assumed)": "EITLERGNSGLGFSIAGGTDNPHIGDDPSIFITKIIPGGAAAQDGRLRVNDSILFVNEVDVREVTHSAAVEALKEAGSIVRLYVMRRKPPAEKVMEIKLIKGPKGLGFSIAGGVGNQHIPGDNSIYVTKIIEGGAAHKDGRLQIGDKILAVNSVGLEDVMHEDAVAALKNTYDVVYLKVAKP",
  "experiment": "SPR, Biacore 3000, PDZ1/2 amine-coupled on CM5 chip, peptide as analyte, 1:1 binding model",
  "data": [
    {"binder": "B1", "values": [
      {"measurement": "Kd", "value": 54.4, "unit": "nM"}
    ]}
  ]
}
